Measurements taken from patent publication US20250320281A1.

Tests used:
Assay in all cases: cell-based or functional assay
[1] = molecular target: HIV-1 Env of isolate 92TH021 (subtype AE) (HIV-1)
[2] = molecular target: HIV-1 Env of isolate MGRM-AG-005 (subtype AG) (HIV-1)
[3] = molecular target: HIV-1 Env of isolate MGRM-Chronic-B-023 (subtype B) (HIV-1)
[4] = molecular target: HIV-1 Env of isolate MGRM-Chronic-B-003 (subtype B) (HIV-1)
[5] = molecular target: HIV-1 Env of isolate MGRM-AG-002 (subtype AG) (HIV-1)
[6] = molecular target: HIV-1 Env of isolate MG RM-D-005 (HIV-1)
[7] = molecular target: HIV-1 Env of pseudovirus isolate MGRM-G-028 (HIV-1)
[8] = molecular target: HIV-1 Env of isolate MG RM-D-002 (HIV-1)
[9] = molecular target: HIV-1 Env of isolate MGRM-A-011 (subtype A) (HIV-1)
[10] = molecular target: HIV-1 Env of isolate MGRM-AG-013 (subtype AG) (HIV-1)
[11] = molecular target: HIV-1 Env of isolate 6535.3 (HIV-1)
[12] = molecular target: HIV-1 Env of isolate MGRM-A-013 (subtype A) (HIV-1)
[13] = molecular target: HIV-1 Env of isolate JRFL (subtype B) (HIV-1)
[14] = molecular target: HIV-1 Env of isolate THR0.18 (subtype B) (HIV-1)
[15] = molecular target: HIV-1 Env of isolate 92UG037 (HIV-1)
[16] = molecular target: HIV-1 Env of isolate MG RM-D-012 (HIV-1)
[17] = molecular target: HIV-1 Env of isolate 98CN006 (HIV-1)
[18] = molecular target: HIV-1 Env of isolate NL43 (subtype B) (HIV-1)
[19] = molecular target: HIV-1 Env of isolate 92UG046 (HIV-1)
[20] = molecular target: HIV-1 Env of isolate MGRM-AE-001 (subtype AE) (HIV-1)
[21] = molecular target: HIV-1 Env of isolate 92UG031 (HIV-1)
[22] = molecular target: HIV-1 Env of isolate MGRM-A-012 (subtype A) (HIV-1)
[23] = molecular target: HIV-1 envelope glycoprotein (Env) of isolate MGRM-C-006 (HIV-1)
[24] = molecular target: HIV-1 Env of isolate MGRM-Chronic-B-020 (subtype B) (HIV-1)
[25] = molecular target: HIV-1 Env of isolate MGRM-G-015 (HIV-1)
[26] = molecular target: aMLV envelope, on pseudovirus (negative control virus)
[27] = molecular target: HIV-1 93IN905 envelope glycoprotein (Env) on pseudovirus (HIV-1)
[28] = molecular target: HIV-1 Env of isolate MGRM-C-028 (HIV-1)
[29] = molecular target: HIV-1 Env of isolate PVO.4 (subtype B pseudovirus) (HIV-1)
[30] = molecular target: HIV-1 Env of isolate CAAN.A2 (subtype B pseudovirus) (HIV-1)
[31] = molecular target: HIV-1 Env of isolate MGRM-D-024 (pseudovirus) (HIV-1)
[32] = molecular target: HIV-1 Env of isolate MGRM-D-001 (pseudovirus) (HIV-1)
[33] = molecular target: HIV-1 Env of isolate 92RW024 (clade A pseudovirus) (HIV-1)
[34] = molecular target: HIV-1 envelope glycoprotein (Env) of isolate 93RW029, clade A (HIV-1)
[35] = molecular target: HIV-1 Env of isolate CAAN.A2 (Acute), clade B, on pseudovirus (HIV-1)
[36] = molecular target: HIV-1 envelope glycoprotein (Env) of isolate 92RW008, clade A (HIV-1)
[37] = molecular target: HIV-1 envelope glycoprotein (Env) of isolate 92RW009, clade A (HIV-1)
[38] = molecular target: HIV-1 Env of pseudovirus MGRM-F1-022 (HIV-1)
[39] = molecular target: HIV-1 IAVI-C18 envelope glycoprotein (Env) on pseudovirus (HIV-1)
[40] = molecular target: HIV-1 Env of isolate LAVIC_18 (HIV-1)

4995_E20 (PGT-142) (antibody), sequence (VH): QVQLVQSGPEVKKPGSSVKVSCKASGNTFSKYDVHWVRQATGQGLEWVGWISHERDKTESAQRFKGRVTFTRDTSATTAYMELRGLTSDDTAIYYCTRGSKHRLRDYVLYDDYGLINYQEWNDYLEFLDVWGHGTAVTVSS
4995_E20 (PGT-142) (antibody), sequence (VL): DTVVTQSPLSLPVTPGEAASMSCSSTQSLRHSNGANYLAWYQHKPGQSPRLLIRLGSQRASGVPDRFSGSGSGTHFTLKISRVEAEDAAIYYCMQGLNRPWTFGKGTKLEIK
4993_K13 (PGT-141) (antibody), sequence (VH): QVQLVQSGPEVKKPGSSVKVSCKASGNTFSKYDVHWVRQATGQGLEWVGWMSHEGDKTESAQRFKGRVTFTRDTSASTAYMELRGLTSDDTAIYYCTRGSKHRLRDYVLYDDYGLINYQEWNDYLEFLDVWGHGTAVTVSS
4993_K13 (PGT-141) (antibody), sequence (VL): as the sequence (VL) above

5136_H01 (PGT-131) (antibody)
IC50 (µg/mL), pseudovirus neutralization [1]: 0.014 µg/mL
IC50 (µg/mL), pseudovirus neutralization [2]: 1.04 µg/mL
IC50 neutralization [3]: > 50 µg/mL
IC50 neutralization [4]: > 50 µg/mL
IC50 (µg/mL), pseudovirus neutralization [5]: > 50 µg/mL
IC50 (µg/mL), pseudovirus neutralization [6]: > 50 µg/mL
IC50 (µg/mL), pseudovirus neutralization [7]: 0.466 µg/mL
IC50 (µg/mL), pseudovirus neutralization [8]: 11.2 µg/mL
IC50 (µg/mL), pseudovirus neutralization [9]: > 50 µg/mL
IC50 (µg/mL), pseudovirus neutralization [10]: 0.03 µg/mL
neutralization IC50 [11]: 0.056 µg/mL
IC50 (µg/mL), pseudovirus neutralization [12]: > 50 µg/mL
IC50 neutralization [13]: 0.454 µg/mL
IC50 neutralization [14]: > 50 µg/mL
IC50 [15]: 0.048 µg/mL
IC50 (µg/mL), pseudovirus neutralization [16]: > 50 µg/mL
IC50 (µg/mL), pseudovirus neutralization [17]: 35.3 µg/mL
IC50 neutralization [18]: > 50 µg/mL
IC50 (µg/mL), pseudovirus neutralization [19]: > 50 µg/mL
IC50 (µg/mL), pseudovirus neutralization [20]: 4.8 µg/mL
IC50 [21]: > 50 µg/mL
IC50 (µg/mL), pseudovirus neutralization [22]: > 50 µg/mL
IC50 (µg/mL), pseudovirus neutralization [23]: 0.611 µg/mL
IC50 neutralization [24]: 0.053 µg/mL

4995_E20 (PGT-142) (antibody)
IC50 (µg/mL), pseudovirus neutralization [1]: 0.002 µg/mL
IC50 (µg/mL), pseudovirus neutralization [25]: > 50 µg/mL
IC50 (µg/mL), pseudovirus neutralization [20]: > 50 µg/mL

5141_B17 (PGT-126) (antibody)
IC50 (µg/mL), pseudovirus neutralization [7]: 0.012 µg/mL
IC50, pseudovirus neutralization [26]: > 10 µg/mL
IC50, pseudovirus neutralization [27]: 0.0194 µg/mL
IC80 (pseudovirus neutralization) [27]: 0.0676 µg/mL
IC90 (pseudovirus neutralization) [27]: 0.14 µg/mL
IC95 (pseudovirus neutralization) [27]: 0.275 µg/mL
neutralization IC50 [28]: 0.196 µg/mL
IC50 (µg/mL), pseudovirus neutralization [29]: 0.017 µg/mL
IC50 (µg/mL), pseudovirus neutralization [30]: 0.273 µg/mL
IC50, pseudovirus neutralization [31]: 0.376 µg/mL
IC50, pseudovirus neutralization [32]: 0.084 µg/mL

1496_C09 (PG9) (TCN-109) (antibody)
IC50 (µg/ml), pseudovirus neutralization [33]: 0.18 µg/mL
IC50 (µg/ml), pseudovirus neutralization [34]: 1.19 µg/mL
IC50 (µg/mL), pseudovirus neutralization [25]: 6.6 µg/mL
IC50 (µg/mL), pseudovirus neutralization [11]: 1.05 µg/mL
IC50 (µg/ml), pseudovirus neutralization [35]: 5.67 µg/mL
IC50 (µg/ml), pseudovirus neutralization [36]: 0.01 µg/mL
IC50 (µg/ml), pseudovirus neutralization [37]: 0.03 µg/mL
IC50 (µg/ml), pseudovirus neutralization [38]: 0.06 µg/mL
IC50, pseudovirus neutralization [39]: 0.0535 µg/mL
IC50 [40]: 0.1 µg/mL

VRC01 (antibody)
IC50 (µg/mL), pseudovirus neutralization [1]: 0.616 µg/mL
IC50 (µg/mL), pseudovirus neutralization [25]: 0.548 µg/mL
IC50 [16]: 0.216 µg/mL
IC50 (µg/mL), pseudovirus neutralization [28]: 0.319 µg/mL
IC50 (µg/mL), pseudovirus neutralization [20]: 0.167 µg/mL

PGV04 (antibody)
IC50 (µg/mL), pseudovirus neutralization [25]: 0.333 µg/mL
IC50 (µg/mL), pseudovirus neutralization [11]: 0.757 µg/mL
IC50 [17]: 1.32 µg/mL

5123_A06 (PGT-125) (antibody)
IC50 (µg/mL), pseudovirus neutralization [7]: 0.012 µg/mL
IC50, pseudovirus neutralization [26]: > 10 µg/mL
neutralization IC50 [28]: 14 µg/mL
IC50 (µg/mL), pseudovirus neutralization [29]: 0.042 µg/mL
IC50 (µg/mL), pseudovirus neutralization [30]: 5.47 µg/mL
IC50, pseudovirus neutralization [31]: > 50 µg/mL
IC50, pseudovirus neutralization [32]: 2.84 µg/mL

5114_A19 (PGT-128) (antibody)
IC50 (µg/mL), pseudovirus neutralization [1]: 0.01 µg/mL
IC50 (µg/mL), pseudovirus neutralization [2]: 0.037 µg/mL
IC50 neutralization [3]: > 50 µg/mL
IC50 neutralization [4]: 0.007 µg/mL
IC50 (µg/mL), pseudovirus neutralization [5]: 4.99 µg/mL
IC50 (µg/mL), pseudovirus neutralization [6]: 0.051 µg/mL
IC50 (µg/mL), pseudovirus neutralization [7]: 0.008 µg/mL
IC50 (µg/mL), pseudovirus neutralization [8]: 0.011 µg/mL
IC50 (µg/mL), pseudovirus neutralization [9]: > 50 µg/mL
IC50 (µg/mL), pseudovirus neutralization [10]: 0.004 µg/mL
neutralization IC50 [11]: 0.011 µg/mL
IC50 (µg/mL), pseudovirus neutralization [12]: 0.008 µg/mL
IC50 neutralization [13]: 0.007 µg/mL
IC50 neutralization [14]: > 50 µg/mL
IC50 [15]: 0.006 µg/mL
IC50 (µg/mL), pseudovirus neutralization [16]: > 50 µg/mL
IC50 (µg/mL), pseudovirus neutralization [17]: 0.015 µg/mL
IC50 neutralization [18]: > 50 µg/mL
IC50 (µg/mL), pseudovirus neutralization [19]: > 50 µg/mL
IC50 (µg/mL), pseudovirus neutralization [20]: 0.069 µg/mL
IC50 [21]: > 50 µg/mL
IC50 (µg/mL), pseudovirus neutralization [22]: 0.025 µg/mL
IC50 (µg/mL), pseudovirus neutralization [23]: 0.014 µg/mL
IC50 neutralization [24]: 0.007 µg/mL

4993_K13 (PGT-141) (antibody)
IC50 (µg/mL), pseudovirus neutralization [1]: 0.001 µg/mL
IC50 (µg/mL), pseudovirus neutralization [25]: > 50 µg/mL
IC50 (µg/mL), pseudovirus neutralization [20]: > 50 µg/mL
